Experimental data taken from patent publication US20170224837A1.
Read-outs that look alike come from different tables or passages of the source.

How the values were obtained:
[1] = biological target: human Trop-2 (EGP-1, TACSTD2) on human tumor cells or tissues (human) (UniProt P09758); experiment: cell binding on NCI-N87 cells, anti-mouse-HRP, luminescence
[2] = biological target: human Trop-2 (EGP-1, TACSTD2) on human tumor cells or tissues (human) (UniProt P09758); experiment: cell-based or functional assay
[3] = biological target: recombinant human neonatal receptor (FcRn) (human) (UniProt P55899); experiment: SPR (BIACORE), FcRn chip
Chain of recombinant human neonatal receptor (FcRn) (human) (P55899 24-297 limits assumed): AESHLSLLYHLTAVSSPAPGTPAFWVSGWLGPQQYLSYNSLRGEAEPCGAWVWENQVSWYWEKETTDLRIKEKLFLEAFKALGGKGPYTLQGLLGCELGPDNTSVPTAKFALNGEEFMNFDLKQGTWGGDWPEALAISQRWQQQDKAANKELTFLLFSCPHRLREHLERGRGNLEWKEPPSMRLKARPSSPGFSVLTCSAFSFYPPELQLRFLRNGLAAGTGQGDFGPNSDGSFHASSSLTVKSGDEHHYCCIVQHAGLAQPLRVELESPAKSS

[4] = biological target: rhTrop-2/TACSTD2 (Sino Biological, Inc.), recombinant human Trop-2 immobilized on CM5 chip (human) (UniProt P09758); experiment: SPR (BIACORE), Trop-2 chip
Chain of rhTrop-2/TACSTD2 (Sino Biological, Inc.), recombinant human Trop-2 immobilized on CM5 chip (human) (P09758 27-274 limits assumed): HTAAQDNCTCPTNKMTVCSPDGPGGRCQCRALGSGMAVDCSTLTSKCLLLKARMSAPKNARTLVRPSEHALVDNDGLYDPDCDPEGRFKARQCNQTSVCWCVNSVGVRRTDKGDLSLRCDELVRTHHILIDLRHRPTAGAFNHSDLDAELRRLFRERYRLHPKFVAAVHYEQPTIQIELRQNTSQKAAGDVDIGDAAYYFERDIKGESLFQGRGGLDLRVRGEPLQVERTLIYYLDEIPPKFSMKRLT

[5] = biological target: human Trop-2 (EGP-1, TACSTD2) on human tumor cells or tissues (human) (UniProt P09758); experiment: cell binding assay; cell line not stated
[6] = biological target: recombinant human neonatal receptor (FcRn) (human) (UniProt P55899); experiment: SPR (BIACORE), low-density FcRn chip, three runs at 400 to 25 nM
[7] = biological target: rhTrop-2/TACSTD2 (Sino Biological, Inc.), recombinant human Trop-2 immobilized on CM5 chip (human) (UniProt P09758); experiment: SPR (BIACORE), low-density recombinant human Trop-2 chip, three runs
[8] = biological target: human Trop-2 (EGP-1, TACSTD2) on human tumor cells or tissues (human) (UniProt P09758); experiment: cell-based or functional assay; remark: listed apart in the source
[9] = biological target: Recombinant human Trop-2 with a His-tag (Sino Biological, Inc., Cat#10428-H09H) (human) (UniProt P09758); experiment: ELISA on Ni-NTA strips coated with His-tagged recombinant human Trop-2
Chain of Recombinant human Trop-2 with a His-tag (Sino Biological, Inc., Cat#10428-H09H) (human) (P09758 27-274 limits assumed): as above

Chain of human Trop-2 (EGP-1, TACSTD2) on human tumor cells or tissues (human) (P09758 27-323): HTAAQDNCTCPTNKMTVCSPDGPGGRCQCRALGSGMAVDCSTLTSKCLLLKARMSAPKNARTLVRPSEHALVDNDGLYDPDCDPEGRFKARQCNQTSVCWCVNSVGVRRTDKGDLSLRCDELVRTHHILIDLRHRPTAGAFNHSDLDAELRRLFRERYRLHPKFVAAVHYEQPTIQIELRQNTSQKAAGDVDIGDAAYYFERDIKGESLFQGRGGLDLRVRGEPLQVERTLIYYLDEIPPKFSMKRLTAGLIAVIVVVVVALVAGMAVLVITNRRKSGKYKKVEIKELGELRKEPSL

## 162-46.2 (murine monoclonal antibody against human Trop-2, hybridoma ATCC HB-187)
[1]
  BMax (relative luminescent units): 8470
  Kd: 0.52 nM
  reduction of maximum binding (Bmax) against RS7: 25%

## MAB650 (murine monoclonal antibody against human Trop-2, R&D Systems)
[1]
  BMax (relative luminescent units): 6020
  Kd: 0.49 nM
  reduction of maximum binding (Bmax) against RS7: 50%

## Sacituzumab govitecan (IMMU-132, also known as hRS7-CL2A-SN-38) (antibody)
[2]
  ADCC, specific lysis of MDA-MB-468 (4-h LDH release, E:T 50:1, 33.3 nM): 8.6%
  Median fluorescence intensity of anti-rH2AX-AF488 staining (dsDNA breaks), HCC1806 (Trop-2+): 546 MFI
  decrease of ADCC relative to hRS7 (MDA-MB-468, NIH:OVCAR-3, BxPC-3): > 60%
  γH2AX induction in BxPC-3, Mean Fluorescence Intensity: 5350 MFI
  γH2AX induction in BxPC-3, Percent Positive: 69%
[3]
  fold lower average binding level than hRS7: 2 fold
[4]
  fold improvement of KD against naked hRS7: 2 fold
[5]
  Kd: 1.2 nM
[6]
  Kd: 192 nM
[7]
  Kd: 0.26 nM

B1: humanized RS7 (hRS7) anti-Trop-2 antibody, hRS7 IgG (antibody, INN chains, looked up, V domains shown, part only)
VH: QVQLQQSGSELKKPGASVKVSCKASGYTFTNYGMNWVKQAPGQGLKWMGWINTYTGEPTYTDDFKGRFAFSLDTSVSTAYLQISSLKADDTAVYFCARGGFGSSYWYFDVWGQGSLVTVSS
VL: DIQLTQSPSSLSASVGDRVSITCKASQDVSIAVAWYQQKPGKAPKLLIYSASYRYTGVPDRFSGSGSGTDFTLTISSLQPEDFAVYYCQQHYITPLTFGAGTKVEIK
[8]
  ADCC, specific lysis of BxPC-3 by PBMC (E:T 100:1, 33.3 nM): 8.5%
  ADCC, specific lysis of MDA-MB-468 (4-h LDH release, E:T 50:1, 33.3 nM): 29.8%
[6]
  Kd: 92.4 nM
[7]
  Kd: 0.51 nM
[9]
  Kd: 0.3 nM

B2: hA20-SN-38 (anti-CD20 hA20 / veltuzumab conjugated to SN-38), non-binding control conjugate (antibody, INN chains, looked up, V domains shown, part only)
VH: QVQLQQSGAEVKKPGSSVKVSCKASGYTFTSYNMHWVKQAPGQGLEWIGAIYPGMGDTSYNQKFKGKATLTADESTNTAYMELSSLRSEDTAFYYCARSTYYGGDWYFDVWGQGTTVTVSS
VL: DIQLTQSPSSLSASVGDRVTMTCRASSSVSYIHWFQQKPGKAPKPWIYATSNLASGVPVRFSGSGSGTDYTFTISSLQPEDIATYYCQQWTSNPPTFGGGTKLEIKR
modifications: SN-38 via CL2A linker
[8]
  γH2AX induction in BxPC-3, Mean Fluorescence Intensity: 2250 MFI
  γH2AX induction in BxPC-3, Percent Positive: 12.7%
